These results are taken from paper PMC8666670, “Malonyl-acyl carrier protein decarboxylase activity promotes fatty acid and cell envelope biosynthesis in Proteobacteria” (The Journal of Biological Chemistry, 2021).

First the molecules themselves.
B4: MadA(M17A), malonyl-ACP decarboxylase (yiiD gene product) of E. coli (enzyme, UniProt P0ADQ2 1-329, looked up)
chain: MSQLPGLSRETRESIAAYHLRVPQTEEELERYYQFRWEMLRKPLHQPKGSERDAWDAMAHHQMVVDEQGNLVAVGRLYINADNEASIRFMAVHPDVQDKGLGTLMAMTLESVARQEGVKRVTCSAREDAVEFFAKLGFVNQGEITTPTTTPIRHFLMIKPVATLDDILHRGDWCAQLQQAWYEHIPLSEKMGVRIQQYTGQKFITTMPETGNQNPHHTLFAGSLFSLATLTGWGLIWLMLRERHLGGTIILADAHIRYSKPISGKPHAVADLGALSGDLDRLARGRKARVQMQVEIFGDETPGAVFEGTYIVLPAKPFGPYEEGGNEEE
notes: YiiD (MadA) of E. coli, amplified from Top10 genomic DNA, plasmid pPJ604 with M17A to remove a second start site; Cleavage of the His6 tag is reported only for ACP and MadA^C; MadA^C is said to end at residue 329, so the whole protein probably spans 1-329; also called MadA(M17A) mutant

In data set [1] the target is GlmU, glucosamine-1-phosphate N-acetyl transferase/N-acetyl-glucosamine-1-phosphate uridylyltransferase of E. … (E. coli, UniProt P0ACC7 1-456). Kind of data set: cell-based or functional assay.
The target of data set [2] is B4. Kind of data set: AUC; sedimentation analysis (methods: sedimentation velocity, 50,000 rpm, interference optics), 0.02 M Tris pH 7.5, 0.5 M NaCl, 20 °C, no reducing agents. Particulars: both partners purified.
Data set [3] deals with the molecule itself. Kind of data set: SEC; gel filtration chromatography of the purified recombinant protein. Background: Size exclusion chromatography separates by hydrodynamic size, large species first.
Data set [4] deals with the molecule itself. Kind of data set: AUC; sedimentation analysis (methods: sedimentation velocity, 50,000 rpm, interference optics), 0.02 M Tris pH 7.5, 0.5 M NaCl, 20 °C, no reducing agents.

Sequence of GlmU, glucosamine-1-phosphate N-acetyl transferase/N-acetyl-glucosamine-1-phosphate uridylyltransferase of E. … (P0ACC7 whole entry): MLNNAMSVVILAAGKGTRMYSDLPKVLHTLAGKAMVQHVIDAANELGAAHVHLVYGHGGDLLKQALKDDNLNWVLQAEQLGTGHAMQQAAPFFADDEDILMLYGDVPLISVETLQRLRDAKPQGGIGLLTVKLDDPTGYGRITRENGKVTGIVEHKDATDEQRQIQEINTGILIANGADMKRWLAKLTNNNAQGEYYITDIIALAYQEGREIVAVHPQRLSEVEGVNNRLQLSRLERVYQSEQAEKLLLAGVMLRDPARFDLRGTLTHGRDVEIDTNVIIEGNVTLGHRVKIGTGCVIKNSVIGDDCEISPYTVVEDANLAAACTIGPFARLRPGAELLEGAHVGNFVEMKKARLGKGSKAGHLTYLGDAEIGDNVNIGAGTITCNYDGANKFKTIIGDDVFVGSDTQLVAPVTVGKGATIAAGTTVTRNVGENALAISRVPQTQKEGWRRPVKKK

B1: acetyl-acyl carrier protein (acetyl-ACP) (natural protein, UniProt P0A6A8 1-78, looked up)
chain: MSTIEERVKKIIGEQLGVKQEEVTNNASFVEDLGADSLDTVELVMALEEEFDTEIPDEEAEKITTVQAAIDYINGHQA
modifications: prosthetic group with attached acetyl chain (acetyl thioester), made from apo-ACP and acetyl-CoA with [ACP]synthase
Take B1: the “apparent KM of the GlmU acetyltransferase half reaction for [^14C]acetyl-ACP (radiochemical TLC assay, 0–32 μM acetyl-ACP)” value in data set [1] was determined as 20 µM.

B2: acyl carrier protein (ACP) (natural protein, UniProt P0A6A8 1-78, looked up)
chain: MSTIEERVKKIIGEQLGVKQEEVTNNASFVEDLGADSLDTVELVMALEEEFDTEIPDEEAEKITTVQAAIDYINGHQA
notes: acyl carrier protein; The ACP disulfide dimers seen in the sedimentation analysis imply that at least part of the preparation carries the phosphopantetheine thiol (holo-ACP)
In general, stoichiometry N refers to a count of units in the complex or per binding partner. Turning to B2, in data set [2], the “stoichiometry N” value stood at 2 ACP per MadA dimer.

B3: MadA^C, carboxy-terminal hot dog domain of E. coli MadA (domain or fragment, UniProt P0ADQ2 171-329, looked up)
chain: GDWCAQLQQAWYEHIPLSEKMGVRIQQYTGQKFITTMPETGNQNPHHTLFAGSLFSLATLTGWGLIWLMLRERHLGGTIILADAHIRYSKPISGKPHAVADLGALSGDLDRLARGRKARVQMQVEIFGDETPGAVFEGTYIVLPAKPFGPYEEGGNEEE
notes: MadA (YiiD) of E. coli, amino acids 171 to 329, amplified from Top10 genomic DNA
On to B3, for which the “stoichiometry N” value in data set [3] came out at 2.

Consider B4, for which, in data set [4], the “stoichiometry N” value amounted to 2.
